Results: the RNAGym collection of RNA variant scans (doi:10.7554/elife.80360)

B1: HDV Ribozyme (parent)
chain: GGCCGGCAUGGUCCCAGCCUCCUCGCUGGCGCCGGCUGGGCAACAUUCCGAGGGGACCGUCCCCUCGGUAAUGGCGAAUGGGACCCA

Variants of: B1
Assay: self-cleavage, relative activity (ratio to wild type); higher = more cleavage; co-transcriptional

Going from GGCCGGCAUGGUCCCAGCCUCCUCGCUGGCGCCGGCUGGGCAAGAUUCCGAGGGGACCGUCCCCUCGCUAAUGGCGAAUGGGACCCA to GGCCGGCAUGGUCCCAGCCUCCUCGCUGGCGCCGGCUGGGCAUCAAUCCGAGGGGACCGUCCCCUCGGUAAUGGCGAAUGGGACCCA, the self-cleavage rises from 0.475 to 0.653.

Compared with GGCCGGCAUGGUCCCAGCCUCCUCGCUGGCGCCGGCUGGGCAAGAUUCCGGGGGGACCGUCCCCUCGGUAAUGGCGAAUGGGACCCA, GGCCGGCAUGGUCCCAGCCUCCUCGCUGGCGCCGGCUGGGCAUCAUUCCGAGGGGACCGUCCCCUCGGUAACGGCGAAUGGGACCCA is lower in self-cleavage: 0.653 for the first, 0.155 for the second.

First: GGCCGGCAUGGUCCCAGCCUCCUCGCUGGCGCCGGCUGGGCAAAAUUCCGAGGGGACCGUCCCCUCGGUAAUGGCGACUGGGACCCA
Second: GGCCGGCAUGGUCCCAGCCUCCUCGCUGGCGCCGGCUGGGCAAGAUUCCGAGGGGACCGUCCCCUCGGUAAUGGCGUAUGGGACCCA
The self-cleavage of the first is lower: 0.0811 for the first, 0.0978 for the second.

Going from GGCCGGCAUGGUCCCAGCCUCCUCGCUGGCGCCGGCUGGGCAAAAUUCCGAGGGGACCGUCCCCUCGAUAAUGGCGAAUGGGACCCA to GGCCGGCAUGGUCCCAGCCUCCUCGCUGGCGCCGGCUGGGCAUCAUUCCGAGGGGACCGUCCCCGCGGUAAUGGCGAAUGGGACCCA, the self-cleavage falls from 0.704 to 0.302.

GGCCGGCAUGGUCCCAGCCUCCUCGCUGGCGCCGGCUGGGCAAGAUUCCGAGGGGACCGUCCCCUGGGUAAUGGCGAAUGGGACCCA and GGCCGGCAUGGUCCCAGCCUCCUCGCUGGCGCCGGCUGGGCAAAAUUCCGAGGGGACCGGCCCCUCGGUAAUGGCGAAUGGGACCCA are the same in self-cleavage: 0.554 for the first, 0.554 for the second.

First: GGCCGGCAUGGUCCCAGCCUCCUCGCUGGCGCCGGCUGGGCAAAAUUCCGAGGGGACCGACCCCUCGGUAAUGGCGAAUGGGACCCA
Second: GGCCGGCAUGGUCCCAGCCUCCUCGCUGGCGCCGGCUGGGCAAAAUUCCGAGGGGACCGUCCCCUCGGUAAUGGCGAAUGGGACACA
The self-cleavage of the first is higher: 0.867 for the first, 0.656 for the second.

First: GGCCGGCAUGGUCCCAGCCUCCUCGCUGGCGCCGGCUGGGCAAAAUUCCGAGGGGACCGUCCCCUCGGUAAUGGCGAAUGGGACUCA
Second: GGCCGGCAUGGUCCCAGCCUCCUCGCUGGCGCCGGCUGGGCAAGAUUCCAAGGGGACCGUCCCCUCGGUAAUGGCGAAUGGGACCCA
The self-cleavage of the first is higher: 0.727 for the first, 0.657 for the second.

Going from GGCCGGCAUGGUCCCAGCCUCCUCGCUGGCGCCGGCUGGGCAAGAUUCCGAGGGGACCGUCCCCUCGGUAAUGGCGAUUGGGACCCA to GGCCGGCAUGGUCCCAGCCUCCUCGCUGGCGCCGGCUGGGCAAGAUUCCGAGGGGACCGUCCCCUCCGUAAUGGCGAAUGGGACCCA, the self-cleavage rises from 0.19 to 0.755.

Compared with GGCCGGCAUGGUCCCAGCCUCCUCGCUGGCGCCGGCUGGGCAAGAUUCCGAGGGAACCGUCCCCUCGGUAAUGGCGAAUGGGACCCA, GGCCGGCAUGGUCCCAGCCUCCUCGCUGGCGCCGGCUGGGCAAAAUUCCGACGGGACCGUCCCCUCGGUAAUGGCGAAUGGGACCCA is higher in self-cleavage: 0.787 for the first, 0.902 for the second.

Compared with GGCCGGCAUGGUCCCAGCCUCCUCGCUGGCGCCGGCUGGGCAAGAUUCCGAGGGGACCGUCCGCUCGGUAAUGGCGAAUGGGACCCA, GGCCGGCAUGGUCCCAGCCUCCUCGCUGGCGCCGGCUGGGCAUCAUUCCGAGGGGACCGUCCCCUCGGCAAUGGCGAAUGGGACCCA is higher in self-cleavage: 0.441 for the first, 0.494 for the second.

First: GGCCGGCAUGGUCCCAGCCUCCUCGCUGGCGCCGGCUGGGCAAAAUUCCGGGGGGACCGUCCCCUCGGUAAUGGCGAAUGGGACCCA
Second: GGCCGGCAUGGUCCCAGCCUCCUCGCUGGCGCCGGCUGGGCAAAAUUCCGUGGGGACCGUCCCCUCGGUAAUGGCGAAUGGGACCCA
The self-cleavage of the first is lower: 0.898 for the first, 1.13 for the second.

First: GGCCGGCAUGGUCCCAGCCUCCUCGCUGGCGCCGGCUGGGCAAGAUUCCGAGGGGACGGUCCCCUCGGUAAUGGCGAAUGGGACCCA
Second: GGCCGGCAUGGUCCCAGCCUCCUCGCUGGCGCCGGCUGGGCAAGAUUCCGAGGGGACCGUCCCUUCGGUAAUGGCGAAUGGGACCCA
The self-cleavage of the first is lower: 0.665 for the first, 0.686 for the second.

Going from GGCCGGCAUGGUCCCAGCCUCCUCGCUGGCGCCGGCUGGGCAAAAUUCCGAGGGGACCGUCCCCUCGGCAAUGGCGAAUGGGACCCA to GGCCGGCAUGGUCCCAGCCUCCUCGCUGGCGCCGGCUGGGCAAAAUUCCGAGGGGACCGUCCCCUCGGAAAUGGCGAAUGGGACCCA, the self-cleavage rises from 0.677 to 0.727.

Going from GGCCGGCAUGGUCCCAGCCUCCUCGCUGGCGCCGGCUGGGCAAAAUUCCGAGGGGACCGUCCCCGCGGUAAUGGCGAAUGGGACCCA to GGCCGGCAUGGUCCCAGCCUCCUCGCUGGCGCCGGCUGGGCAAAAUUCCGAGGGGACCGUCCCCCCGGUAAUGGCGAAUGGGACCCA, the self-cleavage falls from 0.85 to 0.804.

Compared with GGCCGGCAUGGUCCCAGCCUCCUCGCUGGCGCCGGCUGGGCAAAAUUCCGAGGGUACCGUCCCCUCGGUAAUGGCGAAUGGGACCCA, GGCCGGCAUGGUCCCAGCCUCCUCGCUGGCGCCGGCUGGGCAAAAUUCCGAGGGGACCGUCCCCUCGGUAAUGGCUAAUGGGACCCA is higher in self-cleavage: 0.698 for the first, 0.767 for the second.

First: GGCCGGCAUGGUCCCAGCCUCCUCGCUGGCGCCGGCUGGGCAAAAUUCCGAGGGGACCGUCCCCUCGGUAAUGGCCAAUGGGACCCA
Second: GGCCGGCAUGGUCCCAGCCUCCUCGCUGGCGCCGGCUGGGCAAAAUUCCGAGGGGACCGUCCCCUCGGUAAUGCCGAAUGGGACCCA
The self-cleavage of the first is higher: 0.614 for the first, 0.237 for the second.
